Measurements from US20170030911.
Substitutions are numbered along the chain they refer to. Names and notes keep the numbering of the source.

B1: Borrelia burgdorferi HtrA (BB0104, BbHtrA), recombinant wild type mature protein (amino acids 38-474), His-tagged, made in E. coli (protein)
chain: EEKDNTVRALQDSFREVSKKILPSSVEVHATGVIKQSFPIPFFFFDMPEFDSERKSNWAGSGVIIGRDSQKKSLFYVVTNSHVVDKATELEVVSYDKKKHKAKLIGKDEKKDIALISFESDDATIKVADLGDSDKLEIGDWVMAVGSPFQFSFTVTAGIVSGLQRSANPNLQSRNLFIQTDAAINRGNSGGPLVNIKGEVIGINAWIASNSGGNIGLGFAIPVNNIKSTVDFFLKGKKIESAWLGISFYPLKTRDSEVLKSLGVESNDVSAAIIASLYPGSPAVKSGLRAGDIIMKVNGVSMSVFQDVTSYISDFYAGEKVNVEILRGNVKKNIEIVLAVRPKDKELSSSKMLPGFVVYPLVEDIKAQLNLRNWIKGVVVDYIDKNLASNIKMKSGDVILSVNSKSVSNLREFYDALEVGKNTYKILRGNDSFKITF
B2: Borrelia burgdorferi HtrA (BB0104, BbHtrA^S226A), recombinant inactive mutant, mature protein (amino (protein)
chain: B1 chain with S189A

Tests used:
[1] = target: T1, recombinant human decorin, P07585
T1 chain: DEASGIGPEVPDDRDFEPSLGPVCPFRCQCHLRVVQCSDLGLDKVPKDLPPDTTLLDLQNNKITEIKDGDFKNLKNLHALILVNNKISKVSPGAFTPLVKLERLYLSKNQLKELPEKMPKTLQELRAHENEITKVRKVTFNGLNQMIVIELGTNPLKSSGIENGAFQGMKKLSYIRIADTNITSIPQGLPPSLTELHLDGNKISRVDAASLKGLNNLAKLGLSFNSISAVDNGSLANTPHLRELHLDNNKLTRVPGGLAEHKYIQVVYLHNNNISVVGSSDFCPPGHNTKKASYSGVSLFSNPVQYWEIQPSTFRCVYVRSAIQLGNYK

[2] = target: T2, native bovine biglycan, P21809
T2 chain: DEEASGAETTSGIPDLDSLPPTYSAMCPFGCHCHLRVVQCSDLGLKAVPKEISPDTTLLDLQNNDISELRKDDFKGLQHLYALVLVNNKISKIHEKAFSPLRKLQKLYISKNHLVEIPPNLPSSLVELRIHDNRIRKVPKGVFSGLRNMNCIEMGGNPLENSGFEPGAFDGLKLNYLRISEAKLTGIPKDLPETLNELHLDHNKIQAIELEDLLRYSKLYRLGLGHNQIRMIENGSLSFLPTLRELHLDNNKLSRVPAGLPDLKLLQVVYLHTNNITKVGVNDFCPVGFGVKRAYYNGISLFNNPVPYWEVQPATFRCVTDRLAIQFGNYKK

[3] = target: recombinant human aggrecan (G1-IGD-G2 domains), P16112
Chain of recombinant human aggrecan (G1-IGD-G2 domains), P16112 (P16112 20-675): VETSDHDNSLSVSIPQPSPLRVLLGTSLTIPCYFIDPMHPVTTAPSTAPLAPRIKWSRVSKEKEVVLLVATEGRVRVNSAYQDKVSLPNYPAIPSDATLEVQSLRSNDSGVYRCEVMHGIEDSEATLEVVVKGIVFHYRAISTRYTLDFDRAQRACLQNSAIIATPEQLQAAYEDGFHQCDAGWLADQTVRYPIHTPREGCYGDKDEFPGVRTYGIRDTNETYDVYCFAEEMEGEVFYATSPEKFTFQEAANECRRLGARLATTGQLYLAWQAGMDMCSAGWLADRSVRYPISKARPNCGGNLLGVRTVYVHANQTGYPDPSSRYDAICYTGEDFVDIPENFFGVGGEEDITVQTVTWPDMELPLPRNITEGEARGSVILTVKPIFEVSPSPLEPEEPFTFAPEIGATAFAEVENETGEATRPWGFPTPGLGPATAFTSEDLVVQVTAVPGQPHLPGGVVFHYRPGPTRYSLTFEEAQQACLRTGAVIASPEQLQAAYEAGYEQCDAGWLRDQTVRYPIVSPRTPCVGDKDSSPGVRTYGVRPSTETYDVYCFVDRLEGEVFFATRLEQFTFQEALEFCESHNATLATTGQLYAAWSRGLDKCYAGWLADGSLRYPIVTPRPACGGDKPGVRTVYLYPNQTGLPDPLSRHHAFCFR

[4] = target: recombinant human neurocan, O14594
Chain of recombinant human neurocan, O14594 (O14594 23-1321): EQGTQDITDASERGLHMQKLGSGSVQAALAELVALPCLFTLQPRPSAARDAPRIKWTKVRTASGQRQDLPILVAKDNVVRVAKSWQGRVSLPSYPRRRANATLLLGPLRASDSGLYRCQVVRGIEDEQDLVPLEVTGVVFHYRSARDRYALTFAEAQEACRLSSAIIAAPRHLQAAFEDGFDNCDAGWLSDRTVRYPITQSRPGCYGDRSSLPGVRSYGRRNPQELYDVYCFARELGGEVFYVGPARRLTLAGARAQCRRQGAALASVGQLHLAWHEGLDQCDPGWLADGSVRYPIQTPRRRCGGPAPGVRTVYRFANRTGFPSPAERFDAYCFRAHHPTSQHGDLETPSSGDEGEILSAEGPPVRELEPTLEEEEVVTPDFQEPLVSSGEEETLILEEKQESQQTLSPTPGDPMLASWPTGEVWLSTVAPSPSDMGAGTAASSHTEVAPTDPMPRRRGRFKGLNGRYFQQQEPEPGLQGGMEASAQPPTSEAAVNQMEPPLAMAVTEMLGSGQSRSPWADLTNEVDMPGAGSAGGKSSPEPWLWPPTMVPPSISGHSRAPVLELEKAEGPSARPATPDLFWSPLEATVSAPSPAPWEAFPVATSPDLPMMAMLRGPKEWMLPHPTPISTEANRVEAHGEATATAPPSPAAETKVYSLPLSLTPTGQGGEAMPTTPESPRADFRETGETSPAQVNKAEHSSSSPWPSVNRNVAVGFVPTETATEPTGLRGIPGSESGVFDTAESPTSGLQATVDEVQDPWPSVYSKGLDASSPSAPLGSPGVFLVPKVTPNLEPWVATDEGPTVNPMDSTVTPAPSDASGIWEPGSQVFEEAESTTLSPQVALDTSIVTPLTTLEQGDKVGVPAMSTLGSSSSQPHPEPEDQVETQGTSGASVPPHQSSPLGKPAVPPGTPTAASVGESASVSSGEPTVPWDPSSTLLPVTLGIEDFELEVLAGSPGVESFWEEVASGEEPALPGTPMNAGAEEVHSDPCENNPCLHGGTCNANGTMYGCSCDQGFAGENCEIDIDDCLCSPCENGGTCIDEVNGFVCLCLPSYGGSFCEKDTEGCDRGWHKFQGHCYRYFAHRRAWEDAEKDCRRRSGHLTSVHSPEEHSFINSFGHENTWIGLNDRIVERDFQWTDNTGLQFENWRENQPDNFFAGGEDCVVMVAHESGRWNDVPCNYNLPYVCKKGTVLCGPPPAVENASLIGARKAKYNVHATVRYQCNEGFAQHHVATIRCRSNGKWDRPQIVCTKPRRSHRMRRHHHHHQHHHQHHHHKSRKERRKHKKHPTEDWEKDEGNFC

[5] = target: β-casein (in 12% β-casein Zymogram Ready Gels, Bio-Rad)
[6] = target: native human plasma fibronectin, P02751
Chain of native human plasma fibronectin, P02751 (P02751 other isoform, or with tags, fused parts or gaps): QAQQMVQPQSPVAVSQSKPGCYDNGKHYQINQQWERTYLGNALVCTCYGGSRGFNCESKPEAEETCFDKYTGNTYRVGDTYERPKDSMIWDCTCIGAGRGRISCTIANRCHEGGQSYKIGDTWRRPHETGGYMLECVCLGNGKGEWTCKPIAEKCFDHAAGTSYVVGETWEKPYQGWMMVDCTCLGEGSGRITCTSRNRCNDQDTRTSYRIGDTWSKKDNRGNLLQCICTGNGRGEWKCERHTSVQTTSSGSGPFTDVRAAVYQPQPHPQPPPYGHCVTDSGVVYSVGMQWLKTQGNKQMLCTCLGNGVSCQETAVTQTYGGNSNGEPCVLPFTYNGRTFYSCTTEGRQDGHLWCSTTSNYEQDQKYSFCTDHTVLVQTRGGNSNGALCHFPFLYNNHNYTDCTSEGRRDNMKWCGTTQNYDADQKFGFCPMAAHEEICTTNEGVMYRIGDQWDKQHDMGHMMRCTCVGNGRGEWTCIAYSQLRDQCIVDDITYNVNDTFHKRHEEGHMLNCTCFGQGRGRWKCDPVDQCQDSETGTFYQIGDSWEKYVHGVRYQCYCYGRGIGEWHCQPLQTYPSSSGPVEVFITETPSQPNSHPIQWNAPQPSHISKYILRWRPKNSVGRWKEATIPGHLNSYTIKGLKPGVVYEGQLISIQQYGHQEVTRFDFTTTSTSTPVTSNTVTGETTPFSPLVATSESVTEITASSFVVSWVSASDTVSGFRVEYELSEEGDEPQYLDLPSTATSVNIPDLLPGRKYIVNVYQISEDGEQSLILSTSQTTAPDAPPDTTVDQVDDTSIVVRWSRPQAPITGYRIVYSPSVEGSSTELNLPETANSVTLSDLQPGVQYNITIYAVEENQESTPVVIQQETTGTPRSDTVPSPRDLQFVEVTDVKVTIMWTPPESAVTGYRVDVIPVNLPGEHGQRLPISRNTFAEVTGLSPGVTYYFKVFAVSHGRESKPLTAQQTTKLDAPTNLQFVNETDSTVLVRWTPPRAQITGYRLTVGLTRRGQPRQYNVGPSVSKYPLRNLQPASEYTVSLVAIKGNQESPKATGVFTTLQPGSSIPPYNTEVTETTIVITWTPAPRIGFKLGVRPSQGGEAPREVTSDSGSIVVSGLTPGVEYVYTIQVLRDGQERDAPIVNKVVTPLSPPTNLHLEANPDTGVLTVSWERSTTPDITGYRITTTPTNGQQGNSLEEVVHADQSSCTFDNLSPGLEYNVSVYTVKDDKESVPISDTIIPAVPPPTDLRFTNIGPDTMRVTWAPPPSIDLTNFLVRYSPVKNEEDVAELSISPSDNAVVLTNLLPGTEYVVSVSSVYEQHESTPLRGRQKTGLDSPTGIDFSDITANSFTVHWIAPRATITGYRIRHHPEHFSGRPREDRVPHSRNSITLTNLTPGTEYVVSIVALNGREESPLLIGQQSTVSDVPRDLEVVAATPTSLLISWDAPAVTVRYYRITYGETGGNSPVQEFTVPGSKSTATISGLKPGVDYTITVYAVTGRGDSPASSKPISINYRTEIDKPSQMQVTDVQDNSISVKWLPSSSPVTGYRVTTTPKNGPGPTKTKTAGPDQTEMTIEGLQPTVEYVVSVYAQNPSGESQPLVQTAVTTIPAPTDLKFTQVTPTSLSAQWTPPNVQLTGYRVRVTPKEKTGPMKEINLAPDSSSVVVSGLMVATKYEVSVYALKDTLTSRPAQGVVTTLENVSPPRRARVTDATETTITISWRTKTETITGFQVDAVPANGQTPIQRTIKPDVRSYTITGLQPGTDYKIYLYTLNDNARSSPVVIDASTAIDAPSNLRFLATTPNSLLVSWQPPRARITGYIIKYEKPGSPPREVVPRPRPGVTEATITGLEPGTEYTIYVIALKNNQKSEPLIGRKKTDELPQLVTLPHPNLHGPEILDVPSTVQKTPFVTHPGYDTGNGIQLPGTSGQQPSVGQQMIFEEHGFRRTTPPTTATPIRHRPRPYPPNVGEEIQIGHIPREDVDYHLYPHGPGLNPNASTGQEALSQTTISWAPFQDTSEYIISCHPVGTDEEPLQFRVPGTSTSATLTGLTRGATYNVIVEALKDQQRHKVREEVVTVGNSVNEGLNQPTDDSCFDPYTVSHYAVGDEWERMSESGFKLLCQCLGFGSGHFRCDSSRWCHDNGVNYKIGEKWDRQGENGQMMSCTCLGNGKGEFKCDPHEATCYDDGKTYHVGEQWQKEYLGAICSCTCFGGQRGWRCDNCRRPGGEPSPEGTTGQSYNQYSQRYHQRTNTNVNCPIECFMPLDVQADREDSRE

[7] = target: native bovine aggrecan, fully glycosylated, P13608
[8] = target: T3, recombinant human biglycan, P21810
T3 chain: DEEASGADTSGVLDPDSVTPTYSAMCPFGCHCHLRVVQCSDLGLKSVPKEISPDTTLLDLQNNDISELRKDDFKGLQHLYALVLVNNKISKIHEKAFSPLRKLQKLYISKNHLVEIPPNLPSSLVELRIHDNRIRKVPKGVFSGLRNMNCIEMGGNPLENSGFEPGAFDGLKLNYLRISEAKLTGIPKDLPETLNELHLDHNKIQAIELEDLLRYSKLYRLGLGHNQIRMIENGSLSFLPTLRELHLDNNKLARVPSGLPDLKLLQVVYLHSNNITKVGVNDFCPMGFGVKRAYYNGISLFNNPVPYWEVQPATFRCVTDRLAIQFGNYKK

[9] = target: recombinant human versican, P13611
[10] = target: T4, recombinant human E-cadherin, P12830
T4 chain: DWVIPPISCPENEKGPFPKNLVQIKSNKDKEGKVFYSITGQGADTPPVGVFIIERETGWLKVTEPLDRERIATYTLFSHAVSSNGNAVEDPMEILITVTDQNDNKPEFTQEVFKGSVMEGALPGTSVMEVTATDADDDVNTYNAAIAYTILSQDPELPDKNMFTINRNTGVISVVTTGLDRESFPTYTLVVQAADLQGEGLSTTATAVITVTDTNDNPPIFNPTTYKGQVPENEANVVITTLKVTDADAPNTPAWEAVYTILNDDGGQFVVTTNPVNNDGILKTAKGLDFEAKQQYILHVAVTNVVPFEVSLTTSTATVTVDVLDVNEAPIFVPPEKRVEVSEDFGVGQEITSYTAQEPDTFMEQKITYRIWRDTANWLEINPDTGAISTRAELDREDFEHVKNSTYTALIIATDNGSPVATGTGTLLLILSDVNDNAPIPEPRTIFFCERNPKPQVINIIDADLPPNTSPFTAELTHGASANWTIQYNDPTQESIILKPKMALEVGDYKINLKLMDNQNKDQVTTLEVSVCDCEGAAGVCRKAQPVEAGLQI

[11] = target: T5, native bovine decorin, P21793
T5 chain: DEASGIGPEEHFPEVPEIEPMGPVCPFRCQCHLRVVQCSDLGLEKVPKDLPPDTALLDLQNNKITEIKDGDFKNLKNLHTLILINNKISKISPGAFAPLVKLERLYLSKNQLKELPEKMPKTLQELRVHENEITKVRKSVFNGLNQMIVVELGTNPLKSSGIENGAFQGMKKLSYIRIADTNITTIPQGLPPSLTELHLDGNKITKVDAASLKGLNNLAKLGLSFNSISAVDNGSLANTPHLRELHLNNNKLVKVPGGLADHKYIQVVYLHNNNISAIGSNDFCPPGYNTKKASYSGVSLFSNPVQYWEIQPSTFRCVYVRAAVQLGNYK

[12] = target: T6, recombinant human brevican, Q96GW7
T6 chain: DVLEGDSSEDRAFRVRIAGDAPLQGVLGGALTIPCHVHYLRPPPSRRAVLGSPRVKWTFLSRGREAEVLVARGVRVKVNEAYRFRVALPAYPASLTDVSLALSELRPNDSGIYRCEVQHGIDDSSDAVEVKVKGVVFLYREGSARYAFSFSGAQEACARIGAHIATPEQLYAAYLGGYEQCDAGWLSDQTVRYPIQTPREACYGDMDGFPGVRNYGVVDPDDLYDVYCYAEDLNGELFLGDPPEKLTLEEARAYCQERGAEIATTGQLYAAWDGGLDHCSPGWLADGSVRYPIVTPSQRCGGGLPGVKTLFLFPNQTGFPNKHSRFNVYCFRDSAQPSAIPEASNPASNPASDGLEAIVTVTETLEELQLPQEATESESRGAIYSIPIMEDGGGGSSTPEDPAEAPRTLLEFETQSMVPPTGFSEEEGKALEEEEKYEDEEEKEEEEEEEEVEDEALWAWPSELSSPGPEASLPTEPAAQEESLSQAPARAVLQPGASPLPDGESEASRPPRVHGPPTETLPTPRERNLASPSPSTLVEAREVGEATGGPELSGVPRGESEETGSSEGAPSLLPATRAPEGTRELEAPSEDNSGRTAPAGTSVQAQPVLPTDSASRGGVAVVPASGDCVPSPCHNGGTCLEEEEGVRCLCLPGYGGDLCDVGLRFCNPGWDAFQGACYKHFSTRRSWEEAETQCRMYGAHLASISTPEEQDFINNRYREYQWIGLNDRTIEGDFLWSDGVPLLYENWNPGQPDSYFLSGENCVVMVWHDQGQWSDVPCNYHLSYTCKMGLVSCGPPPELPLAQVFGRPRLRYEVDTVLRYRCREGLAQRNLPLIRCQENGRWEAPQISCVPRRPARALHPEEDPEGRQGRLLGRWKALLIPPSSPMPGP

| Protein | Proteolytic activity [1] | Proteolytic activity [2] | Proteolytic activity [3] | Proteolytic activity [4] | β-casein zymography [5] | Proteolytic activity [6] | Proteolytic activity [7] | Proteolytic activity [8] | Proteolytic activity [9] | Proteolytic activity [10] | Proteolytic activity (native bovine casein) | Proteolytic activity [11] | Proteolytic activity [12] | proteolytic fragments on silver-stained SDS-PAGE [3] |
| --- | --- | --- | --- | --- | --- | --- | --- | --- | --- | --- | --- | --- | --- | --- |
| B1 | + | + | + | + | Recombinant BbHtrA was proteolytically active against β-casein as evidenced by clearing around the protein band | + | + | + | + | + | + | + | + | – |
| B2 | – | – | – | – | – | – | – | – | – | – | – | – | – | incubation of recombinant aggrecan (FIG. 4A, lane 1) alone or with the inactive mutant (FIG. 4A, lane 6) failed to generate these fragments |
